Numbering of substitutions follows the chain as printed.
T1: Activin A (human, UniProt P08476 311-426)
T1 construct: Homodimer of two betaA subunits; bought (R&D Systems #338-AC); also called inhibin-betaA dimer
T1 sequence: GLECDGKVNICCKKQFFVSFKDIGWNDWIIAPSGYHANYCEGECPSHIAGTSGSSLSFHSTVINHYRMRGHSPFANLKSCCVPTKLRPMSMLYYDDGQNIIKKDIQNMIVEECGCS

T2: Activin AC (human, UniProt P55103 237-352)
T2 sequence 1: T1 sequence
T2 sequence 2: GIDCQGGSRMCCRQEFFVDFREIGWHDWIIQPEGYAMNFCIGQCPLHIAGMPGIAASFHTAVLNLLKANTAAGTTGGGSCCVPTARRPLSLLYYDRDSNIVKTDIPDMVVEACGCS

T3: Activin AB (human, UniProt P08476 311-426; P09529 293-407)
T3 chain 1: T1 sequence
T3 chain 2: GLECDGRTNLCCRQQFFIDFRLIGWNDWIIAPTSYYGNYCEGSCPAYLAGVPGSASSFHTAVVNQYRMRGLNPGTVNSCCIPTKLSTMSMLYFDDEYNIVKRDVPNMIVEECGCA

B1: H4H10430P (antibody, human IgG4, V domains shown)
VH: EVQLVESGGGLVQPGRSLRLSCKASGFAFDDFAMHWVRQAPGKGLEWVSGIVWNSGDIGYADSVKGRFTISRDNAKNSLYLQLNSLRTEDTALYFCVKDMVRGLMGFNYYGMDVWGQGTTVTVSS
VL: EIVLTQSPATLSLSPGERATLSCRASQTISTYLVWYRQRPGQAPSLLIYDASNRATDIPARFSGSGSGTDFTLTISSLEPEDFAVYYCQQRSNWPITFGQGTRLEIK
notes: also called mAb1
B2: H4H10442P2 (antibody, human IgG4, V domains shown)
VH: QVQLQESGPGLVKPSETLSITCTVSGGSFSSHFWTWIRQPPGKGLEWIGYLHYSGGTSYNPSLKSRVIISVDTSKNQFSLKLNSVTAADTAVYYCARARSGITFGGLIVPGSFDIWGQGTMVTVSS
VL: not shown
B3: H4H10423P (antibody, human IgG4, V domains shown)
VH: QVQLQQSGPGLLKPSQTLSLTCAISGDSVSSNSAAWSWIRQSPSRGLEWLGRTYYRANWFNDYALSVKSRITINPVTSTNHFSLQLHSVTPEDTAVYYCAREGALGYYFDSWGQGTLVTVSS
VL: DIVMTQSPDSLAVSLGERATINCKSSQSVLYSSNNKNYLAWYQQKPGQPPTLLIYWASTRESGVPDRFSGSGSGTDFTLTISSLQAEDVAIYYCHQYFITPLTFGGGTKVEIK
B4: H4H10468P2 (antibody, human IgG4, V domains shown)
VH: B2 VH with I20L, T35S, L51I, H52Y, S58H, K64E, I68T
VL: not shown
B5: H4H10432P2 (antibody, human IgG4, V domains shown)
VH: EVQLVESGGGLVQPGRSLTLSCAVSGFTFDDHAMHWVRQAPGKGLEWVSGISWNSVSIGYADSVKGRFTISRDNAKTSLYLQMNSLRVDDTALYYCVQDLNDILTGYPLFDFWGQGTLVTVSS
VL: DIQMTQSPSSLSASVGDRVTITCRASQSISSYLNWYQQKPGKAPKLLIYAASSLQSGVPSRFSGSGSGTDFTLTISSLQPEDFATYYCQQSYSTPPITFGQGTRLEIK
B6: H4H10438P2 (antibody, human IgG4, V domains shown)
VH: EVQLVESGGGLVQPGRSLRLSCAASGFTFDDNAMHWVRQPPGKGLEWVSGISWNSGSIGYADSVKGRFTISRDNAKNSLYLQMNSLRAEDTALYYCAKDINDILTGYPLFDYWGQGTLVTVSS
VL: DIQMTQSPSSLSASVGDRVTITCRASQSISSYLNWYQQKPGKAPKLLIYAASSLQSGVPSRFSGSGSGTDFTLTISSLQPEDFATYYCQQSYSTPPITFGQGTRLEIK
B7: H4H10424P (antibody, human IgG4, V domains shown)
VH: QVQLVESGGGVVQPGRSLRLSCAASGFTFSSYGMHWVRQAPGKGLEWVAVIWYDGSNKYNADSVKGRFTISRDNSKNTVYLQMNSLRAEDTAVYYCARARNYDILTGYYNLGMDVWGQGTTVTVSS
VL: DIQMTQSPSSLSASVGDRVTITCRASQGIRNDLGWYQQKPGKAPKRLIYAASSLQSGVPSRFSGSGSGTEFTLTISSLQPEDFATYYCLQHNSYPYTFGQGTKLEIK
B8: H4H10437P2 (antibody, human IgG4, V domains shown)
VH: EVQLVESGGGLVQPGRSLRLSCAASGFTFDDYAMHWVRQAPGKGLEWVSGISWNSGSIGYADSVKGRFTISRDNAKNSLYLQMNSLRAEDTALYYCAKDIMGNWDYFYGMDVWGQGTTVTVSS
VL: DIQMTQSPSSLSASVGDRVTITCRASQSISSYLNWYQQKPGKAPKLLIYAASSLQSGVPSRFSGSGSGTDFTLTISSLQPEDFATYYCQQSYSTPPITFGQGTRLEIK
B9: H4H10426P (antibody, human IgG4, V domains shown)
VH: EVQLVESGGNLVQSGRSLRLSCTASGFAFDDFAMHWVRQVPGKGLEWVSGISWNSDTIGYADSVKGRFTISRDNAQNSLFLQMDSLRAEDTALYYCVKDMVRGLIGYYYYGMDVWGQGTTVTVSS
VL: EIVLTQSPAILSLSPGERAILSCRASQSIYTYLSWYQQTPGRAPRLLIYETSSRATGIPARFIGSGSGTDFTLTISSLEPEDFAFYYCQHRSDWPPTFGQGTKLEIK
B10: H4H10445P2 (antibody, human IgG4, V domains shown)
VH: QVQLQESGPGLVKPSETLSLICSVSGGSFSSHFWSWIRQPPGKGLEWIGYVLYSGGTNYNPSLKSRVTISVDTSKNQFFLKLSSVTAADTADYYCARAISGITFGGIIVPGSFDIWGQGTMVTVSS
VL: not shown
B11: H4H10448P2 (antibody, human IgG4, V domains shown)
VH: QVQLQESGPGLVKPSETLSLTCTVSGGTFSSHFWSWIRQPPGKGLEWIGYIFYTGGTNHNPSLKSRVTISIDTSKNQFSLKLTSVTAADTAVYYCARARSGITFGGVIVPGSFDIWGQGTMVTVSS
VL: not shown
B12: H4H10447P2 (antibody, human IgG4, V domains shown)
VH: B10 VH with I21T, V51I, L52H, F79S, S83T, I107M, I115V, Q118E
VL: not shown
B13: H2aM10965N (antibody, mouse IgG2a, V domains shown)
VH: RVQLVQSGSEVKKPGASVKVSCRASGYIFTSYDINWVRQATGQGLEWMGWMNPNNGNTAYTQKFQGRVTMTRNTSISTAYMELSSLRSEDTAVYYCARKGLLWFGKLLGYGMDVWGQGTTVTVSS
VL: not shown
B14: H4H10452P2 (antibody, human IgG4, V domains shown)
VH: QVQLQESGPGLVKPSETLSLTCTVSGGSFSSHFWNWIRQSPGRGLEWIGYIYYSGGTNYNPSFKSRVTMSVDTSKNQFSLKLSSVTAADTAVFYCARARSGITFGGVLVPGSFDIWGQGTMVTVSS
VL: not shown

Molecular target: T1, Activin A
Test: SPR, 5 nM Activin A + 1.88 nM binder over Follistatin-288 surface
Description: (§1) The binding signal (RU) was measured at 150 seconds after the start of the injection, and this signal was subtracted by the measured RU value for a negative control reference surface to determine the specific binding signal.

| % bound RU w/ no inhibitor [%] | Binder |
| --- | --- |
| 59 | B1 |
| 46 | B2 |
| 122 | B3 |

Molecular target: T1, Activin A
Test: SPR, 5 nM Activin A + 7.5 nM binder over Follistatin-288 surface
Description: as §1

| % bound RU w/ no inhibitor [%] | Binder |
| --- | --- |
| 1 | B1 |
| 3 | B2 |
| 97 | B3 |

Molecular target: T1, Activin A
Test: SPR, 5 nM Activin A + 3.75 nM binder over hActRIIA-hFc surface
Description: as §1

| % bound RU w/ no inhibitor [%] | Binder |
| --- | --- |
| 19 | B1 |
| 95 | B2 |
| 111 | B3 |

Molecular target: T1, Activin A
Test: SPR, 5 nM Activin A + 3.75 nM binder over Follistatin-288 surface
Description: as §1

| % bound RU w/ no inhibitor [%] | Binder |
| --- | --- |
| 15 | B1 |
| 6 | B2 |
| 103 | B3 |

Molecular target: T1, Activin A
Test: SPR, 5 nM Activin A + 0.94 nM binder over hActRIIA-hFc surface
Description: as §1

| % bound RU w/ no inhibitor [%] | Binder |
| --- | --- |
| 81 | B1 |
| 114 | B2 |
| 112 | B3 |

Molecular target: T1, Activin A
Test: SPR, 5 nM Activin A + 0.94 nM binder over Follistatin-288 surface
Description: as §1

| % bound RU w/ no inhibitor [%] | Binder |
| --- | --- |
| 79 | B1 |
| 73 | B2 |
| 120 | B3 |

Molecular target: T1, Activin A
Test: SPR, 5 nM Activin A + 60 nM binder over Follistatin-288 surface
Description: as §1

| % bound RU w/ no inhibitor [%] | Binder |
| --- | --- |
| 1 | B1 |
| 3 | B2 |
| 93 | B3 |

Molecular target: T1, Activin A
Test: SPR, 5 nM Activin A + 0 nM binder (no inhibitor) over Follistatin-288 surface
Description: as §1

| % bound RU w/ no inhibitor [%] | Binder |
| --- | --- |
| 100 | B1 |
| 100 | B2 |
| 100 | B3 |

Molecular target: T1, Activin A
Test: SPR, 5 nM Activin A + 60 nM binder over hActRIIA-hFc surface
Description: as §1

| % bound RU w/ no inhibitor [%] | Binder |
| --- | --- |
| 2 | B1 |
| 118 | B2 |
| 116 | B3 |

Molecular target: T1, Activin A
Test: SPR, 5 nM Activin A + 1.88 nM binder over hActRIIA-hFc surface
Description: as §1

| % bound RU w/ no inhibitor [%] | Binder |
| --- | --- |
| 62 | B1 |
| 114 | B2 |
| 114 | B3 |

Molecular target: T1, Activin A
Test: SPR, 5 nM Activin A + 15 nM binder over hActRIIA-hFc surface
Description: as §1

| % bound RU w/ no inhibitor [%] | Binder |
| --- | --- |
| 2 | B1 |
| 113 | B2 |
| 112 | B3 |

Molecular target: T1, Activin A
Test: SPR, 5 nM Activin A + 0.00 nM binder (no inhibitor) over hActRIIA-hFc surface
Description: as §1

| % bound RU w/ no inhibitor [%] | Binder |
| --- | --- |
| 100 | B1 |
| 100 | B2 |
| 100 | B3 |

Molecular target: T1, Activin A
Test: SPR, 5 nM Activin A + 30 nM binder over hActRIIA-hFc surface
Description: as §1

| % bound RU w/ no inhibitor [%] | Binder |
| --- | --- |
| 2 | B1 |
| 117 | B2 |
| 114 | B3 |

Molecular target: T2, Activin AC
Test: cell-based or functional assay

| IC50, inhibition of 4 nM Activin AC in A204/CAGAx12-Luc luciferase bioassay [nM] | Binder |
| --- | --- |
| 0.93 | B1 |
| 3.4 | B4 |
| 6.5 | B2 |
| 2.8 | B5 |

Molecular target: T3, Activin AB
Test: cell-based or functional assay

| IC50, inhibition of 30 pM Activin AB in A204/CAGAx12-Luc luciferase bioassay [M] | Binder |
| --- | --- |
| 1e-10 | B1 |
| 2.3e-09 | B4 |
| 2.2e-09 | B2 |
| 8e-10 | B5 |

Molecular target: T1, Activin A
Test: cell-based or functional assay

| IC50, inhibition of 100 pM Activin A in A204/CAGAx12-Luc luciferase bioassay [M] | Binder |
| --- | --- |
| 2.6e-10 | B6 |
| 7.6e-10 | B7 |
| 2.9e-10 | B8 |
| 2.3e-10 | B9 |
| 5.3e-11 | B10 |
| 6.1e-11 | B1 |
| 3.9e-11 | B4 |
| 4.6e-11 | B11 |
| 7.8e-11 | B12 |
| 5.6e-11 | B2 |
| 2e-10 | B3 |
| 3.5e-09 | B13 |
| 5.8e-11 | B14 |
| 1.1e-10 | B5 |

Molecular target: T1, Activin A
Test: SPR, 5 nM Activin A + 30 nM binder over Follistatin-288 surface
Description: as §1

| % bound RU w/ no inhibitor [%] | Binder |
| --- | --- |
| 1 | B1 |
| 3 | B2 |
| 94 | B3 |

Molecular target: T1, Activin A
Test: SPR, 5 nM Activin A + 15 nM binder over Follistatin-288 surface
Description: as §1

| % bound RU w/ no inhibitor [%] | Binder |
| --- | --- |
| 1 | B1 |
| 3 | B2 |
| 96 | B3 |

Molecular target: T1, Activin A
Test: SPR, 5 nM Activin A + 7.50 nM binder over hActRIIA-hFc surface
Description: as §1

| % bound RU w/ no inhibitor [%] | Binder |
| --- | --- |
| 3 | B1 |
| 105 | B2 |
| 110 | B3 |

Reference: patent publication US20220056119A1 (Regeneron, published 2022)
